Data: the nanobody polyreactivity screen of Harvey et al. (2022)

assay: yeast display, Sf9 membrane polyspecificity reagent, FACS + sequencing; frameworks hold sequencing errors
In short: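 Galactose induction of a Saccharomyces cerevisiae BJ5465 synthetic nanobody display library ran 36–48 hours. The cells were then stained for 1 hour at 4 °C with 10% biotinylated, detergent-solubilized Sf9 membrane reagent, pulled down on streptavidin microbeads and FACS-sorted into low and high (top ~1%) gates on expression and reagent-binding fluorescence. Labels for polyreactivity follow the gate of origin.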

Sequence	polyreactivity (PSR sort gate)
QVHLVESGGGIVQAGGSLRLSCAASGFTFQYNAMGWYRQAPGKERELVAAISYSGTSTYYADSVKGRFTISRDNPKNTVSLQKNSLKPEETAVYYCAVPRLSGSPSAYGYYYWGQGTQVTVSS	high polyreactivity
QVQLVESGGGLVQAGGSLRLSCAASGSTLGGNAMGWYRQEPGKERELGAAITSSAGSTYYADSVKGRYTISRDNAKNTVYLQMNSLQPEDTAVYYCAADYSRDEYDYWGQGTEVTVSS	low polyreactivity
QVQLVESGGGLVQAGGSLRLSCAASGSIFQDNTMGWYRQAPGKERELVAAISWSATSTYYADSVTGRFSISRDNAKNTVYLQMNRLKPEDTAVYDCAAGRSYRRYAYYYWGQGTQVTVSS	high polyreactivity
QVQLVESGGGLVQAGGSLRLSCAASGRTFYRNAMGWYRQAPGKERELVAAISRSGGRTYYADSVKGRFTISRDNAKNTVYLHMNSLKPEDTAVYYCNAQPTLAVADYDYWGQGTQVTVSS	high polyreactivity
QVQLVESGGGLVQAGGSLRLSCAASGSIFYENAMGWYRKAPGKEREFVATIDLIGDRTYYADSVKGRFTISRDNAKNTVYLQMNSLKPEDTAVYYCAAERVGVFFRYDYWGQGTQVTVSS	low polyreactivity
QVQLVESGGGLVQAGGSLRLSCAASGSTLYPNAMGWYRQAPGKERELVAAIRRRGGSTYYADSVKGRFTISRDNAKNTVYLQMNSLKPEDTAVYYCAAYPYKQDPTLVHYDYWGQGTQVTVSS	low polyreactivity
QVQLVESGGGLVQAGGSLRLSCAASGRTFAWYAMGWYRQAPGKERELVAAISWSSDTTYYADSVKGRFTITRDNAKNTVYLQMNSLKPEETAVYYCAAVFQGYTRKYYYWGQGTQVTVSS	high polyreactivity
QVQLVESGGGLVQAGGSLRLSCAASGRIFVPYAMGWYRQAPGKERELVAAISWNTGSTYYADSVKGRFTISRDNAKNTVYLQMNSLKPEDTAVYYCAAGSRVRYDGGYKINGYWGQGTQVTVSS	high polyreactivity
QVQLVESGGGLVQAGGSLRLSCAASGNTFRWYVMGWYRQAPGKERELVAAITSSGSTTYYADSVKGRFTISRDNAKNTVYLQMNSLKPEDTAVYYCAARNYGPYDYWGQGTQVTVSS	low polyreactivity
QVQLVESGGGLVQAGGSLRLSCAASGITFSRNVMGWSRQAPGKERELVAAISRSGGRTYYADSVKGRFTISRDNAMYTVYLQMNRLKPEDTAVYYCNRDIGGTSVLDDYWGQGNQVTVSS	low polyreactivity
HVQLVESGGGLVQAGGSLRLSCAASGRIFWYYTMGWSRQAPGKERELVASINSDSGTYYADSVKGRFTISRDNAKNTVYLQMNRLKPEDTAVYYCTRDSESDANTFTTSGIDEPYDYWGQGTQVTVSS	low polyreactivity
QVQLVESGGGLVQAGGSLRLSCAASGFTFVYYAMGWYRQAPGKEREFVATISSRGDSTYYADSVKGRFTISRDNAKNTVYLQMNSLKPEDTAVYYCAADYDRKTRYGYLGQGTQVTVSS	low polyreactivity
QVQLVESGGGLVQAGGSLRLSCAASGFIFIRYAMGWYIQAPGKERELVASSTGRGGSTYYADSVKVRFTISRDNAKNTVYLQMNSLKPEDTAVYYCAAYYRYPTGWRWGGYYLYDYWGQGTQVTVSS	high polyreactivity
QVQLVESGGGLVQAGGSLRLSCAASGRIFQYYAAMGWYRQAPGKERELVASIRATGGSTYYADSVKGRFTISRDNAKNTVYLQMNSLKPEDTAVYYCAARFAAKSLPAYDYWGQGTQVTVSS	low polyreactivity
QVQLVESGGGLVQAGGSLRLSCAASGSTFYAYALGWYRQAPGKERELVAAISSDGTNYADSVKGRFTISRDNAKNTVYLQMNSLKPVDTAVYYCAADLLLYSSQDNDYWGQGTQVTVSS	low polyreactivity
QVQLVDSGGGLVQAGGSLRLSCGASGFIIARNAMGGYRHPPGKERELVAAISRNGGRTSYADSVKGRFTISRDTAKNTVYLQMNSLNPEDTAVYYCAKAQGYVTWTGAYAYDYWGQGTQVTVSS	high polyreactivity

Sequence	polyreactivity (PSR sort gate)
QVQLVESGGRLVQAGGSLRLSCAASGSTLYAYAMGWYRPAPGKERELVAAIRTGGSTYYADSVNGRFTISRDNAKNTVYLQMNSLKPEDTAVYYCAADHGYQYGYWGQGTQVTVSS	low polyreactivity
QVQLVESGGGLVQAGGSLRLSCGASGFTFSGNVMGWYRQAPGKEREFVAAITSRGGSSYYADSVKGRFTISRDNAKNTVYLQMNSLKPEDTAVYYCNRRRWYFFSLDYWGQGTQVTVSS	high polyreactivity
QVQLVESGGGLVQAGGSLRLSCAASGRIFRHYAMGWYRQAPGKERELVAAISGGGGRTYYADSVKGRFTISRDNAKNTVYLQMNSLKPEDTAVYYCAKRPSYAYSRYRKGHDYWGQGTQVTVSS	high polyreactivity
QVQLVESGGGLVQAGGSLRLSCAASGSTLDEYVMGWYRQAPGKEREFVAAISRSGSSTYYADSVKGRFTISRDNAKNTVYLQMNSLKPEDTAVYYCAARLYSSVVRYRYGYWGQGTQVTVSS	high polyreactivity
QVQLVESGAGLVQAGGSLRLSCAASGSTFSYNAMGWYRQAPGKERELVAAISRRGDSTYYADSVKGRFTISRDNAKNTVYLQMNSLKTEDTAVYYCYAVTYYSHRYFSWYSRKGYDYWGQGTEVTVSS	high polyreactivity
QVQLVESGGGLVQAGGSLRLSCAASGSTFAVNVMGWYRQAPGKERELVATITYRDGRTYYADSVKGRFTISRDNAKNTVYLQMNSLKPEDTAVYYCAADDEYKQEAEMDSWGQGTQVTVSS	low polyreactivity
QVQLVESGGGLVQAGGSLRLSCAASGGIFYFNAMGWYRQAPWKERELVAAIDQRGDTTYYADTVKGRFTISRDNAKNTVYLQMNSLKPEDTAVYYCAAEIYFLGDDYWGQGTQFTVSS	high polyreactivity
QVQLVESGGGLVQAGGSLRLSCAASGSTFYFYTMGWYRQAPGKERELVAAISQDGGSTYYADSVKGRFTISRDNAKNTVYLQMNSLKPEDTAVYYCAADKRGTVYLSSFWMDYWGQGTQVTVSS	low polyreactivity
QVQLVESGGGLVQAGGSLRLSCAASGRNFRLNAMGWYRQAPGKERDLVARITGSYGGSTYYADSVKGRFTISRDNAKNTVSLQMISLKPEDSAGYYCADDGTGSYKGYYWGLGTQVTVSS	high polyreactivity
QVQLVESGGGVVQAGGSLRLTCAASVSIFASNAMGWYRQAPGKEREFVAAITWRTDRTYYADSVKGRFTISRDNAKNTVYLQMNSLKPEDTAVYYCAADLLPLYDYWGQGTQVTVSS	high polyreactivity
QVQLVESGGGLVQAGGSLRLSCAASGSSLNLNAMGWYRQAPGKERELVAAIRWGGGSTYYADSVKGRFTISRDNAKNTDYLQMNSLKPEDTAVYYCAKAYHLGLGYRFDYWGQGTQVTVSS	high polyreactivity
QVQLVESGGGLVQAGGSLRLSCAATGRIFRTTAMGWYRQAPGTVRELVAAITFSGGGTYYADSVKGRFTISRDHAKNTGYLQMNSLKPEETAFYYCYADDSYDLSCFEDDYWGQGTQVTVSS	low polyreactivity
HVQHVDSGAGLVQAGGSLRLSCAASGRTFVGYAMGWYRQAPGKEREFVADITYDSGSTYYADSVKGRFTISRDNAKNTVYLQMNSLKPEDTAVYYCNAKYYYWWYDVDYWGQGTQVTVSS	high polyreactivity
QVQLVESGGGLVQAGGSLRLSCAASGIIFNWYAMGWYRQAPGKERELVAGISTSGGSTYYADSVKGRFTISRDNAKNTVYLQMNSLKPEDTAVYYCAAGRRGAWQYGYYYWGQGTQVTVSS	high polyreactivity
QVQLVESGGGLVQAGGSLRLSCAASGSTFYRNAMGWYRQAPGKERELVAAITSGGSSTYYADSVKVRFTISRDNAKNTVYLQMNSLKPEDTAVYYCAAEPGIYYYWGQGTQVTVSS	low polyreactivity
